Values joined by “and” are separate entries in the source; they are usually repeats but may differ in a detail not shown here. Equal entries are not always repeated. Where two headings read alike, the source gives them in different places.

What all share (assay): SPR
The target of experiment [1] is his-tagged knob domain protein of HAdV-B7 fiber (Human adenovirus B7).
Experiment [2] has as its target ALCAM protein, commercially available (Sino, Cat. No. 10045-H08H-100) (human) (UniProt Q13740).
Experiment [3] addresses his-tagged knob domain protein of HAdV-B7 fiber (Human adenovirus B7). This is another data set of the same source.

The term Kd denotes the constant that tells how readily two partners part at equilibrium. A high value points to weaker binding. As for “his-tagged knob domain protein of HAdV-B7 fiber (domain or fragment)”, the Kd is 3470 nM in experiment [1]; 700 nM and 849 nM in experiment [2].

For “DSG-2 protein (MCE, Cat. No. HY-P77917) (from UniProt Q14126 50-609) (receptor)”, the Kd in experiment [1] was 2610 nM.

B1: ALCAM protein, commercially available (Sino, Cat. No. 10045-H08H-100) (receptor)
chain: WYTVNSAYGDTIIIPCRLDVPQNLMFGKWKYEKPDGSPVFIAFRSSTKKSVQYDDVPEYKDRLNLSENYTLSISNARISDEKRFVCMLVTEDNVFEAPTIVKVFKQPSKPEIVSKALFLETEQLKKLGDCISEDSYPDGNITWYRNGKVLHPLEGAVVIIFKKEMDPVTQLYTMTSTLEYKTTKADIQMPFTCSVTYYGPSGQKTIHSEQAVFDIYYPTEQVTIQVLPPKNAIKEGDNITLKCLGNGNPPPEEFLFYLPGQPEGIRSSNTYTLTDVRRNATGDYKCSLIDKKSMIASTAITVHYLDLSLNPSGEVTRQIGDALPVSCTISASRNATVVWMKDNIRLRSSPSFSSLHYQDAGNYVCETALQEVEGLKKRESLTLIVEGKPQIKMTKKTDPSGLSKTIICHVEGFPKPAIQWTITGSGSVINQTEESPYINGRYYSKIIISPEENVTLTCTAENQLERTVNSLNVSAISIPEHDEADEISDENREKVNDQAK
In experiment [3], B1 yielded a Kd of 961 nM.

(Values after paper PMC11686370.)
